# According to the supplement of paper PMC7125110:
# ± gives the standard error. For some assays here: This sample holds only a part of the variants without activity.
# B1: glmS ribozyme (parent)
# chain: AUAAAAGCGCCAGAACUACAGAAAUGUAGUUGACGAGGAGGAGGUUUAUCGAAUUUUCGGCGGAUGCCUCCAAA
# What was measured:
# Conditions in all cases: with glucosamine-6-phosphate
# [1] = variants of: B1; test: kcat; higher = faster cleavage; RNA array
# Procedure, shortened: (§1)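 The measurements used barcoded ribozyme variants on sequenced MiSeq chips, transcribed in situ by E. coli RNA polymerase and tracked at 37 °C with a hybridised Cy3 probe. Glucosamine-6-phosphate, 40 μM to 10 mM in HEPES/KCl/Mg(OAc)2 buffer, was flowed in while tiles were imaged over ~14 h. Baseline-normalised signals, also normalised to non-cleaving reference variants, gave per-tile medians that were fit to one- or two-exponential decays for kobs. kcat and KM resulted from weighted Michaelis–Menten fits across concentrations.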
# [2] = variants of: B1; test: self-cleavage kobs at 40 uM GlcN6P; higher = faster cleavage; RNA array
# Procedure, shortened: as §1
# [3] = variants of: B1; test: self-cleavage kobs at 640 uM GlcN6P; higher = faster cleavage; RNA array
# Procedure, shortened: as §1
# [4] = variants of: B1; test: self-cleavage kobs at 10000 uM GlcN6P; higher = faster cleavage; RNA array
# Procedure, shortened: as §1
# [5] = variants of: B1; test: self-cleavage kobs at 2500 uM GlcN6P; higher = faster cleavage; RNA array
# Procedure, shortened: as §1
# [6] = variants of: B1; test: KM; higher = weaker cofactor use; RNA array
# Procedure, shortened: as §1
# [7] = variants of: B1; test: self-cleavage kobs at 160 uM GlcN6P; higher = faster cleavage; RNA array
# Procedure, shortened: as §1
Variant,kcat [1],self-cleavage kobs at 40 uM GlcN6P [2],self-cleavage kobs at 640 uM GlcN6P [3],self-cleavage kobs at 10000 uM GlcN6P [4],self-cleavage kobs at 2500 uM GlcN6P [5],KM [6],self-cleavage kobs at 160 uM GlcN6P [7]
G38A G51U,< 1e-05 s⁻¹,< 1e-05 s⁻¹,< 1e-05 s⁻¹,< 1e-05 s⁻¹,,,
G37C C70G,1.47e-05 ± 4.3e-06 s⁻¹,,,,,,
G44A A53C,0.000111 ± 2.5e-05 s⁻¹,,4.9e-05 ± 2.1e-05 s⁻¹,0.0001 ± 1.9e-05 s⁻¹,5.83e-05 ± 1.3e-05 s⁻¹,,
G59A C70G,2.32e-05 ± 4.8e-06 s⁻¹,,2.83e-05 ± 1.3e-05 s⁻¹,,,,
G32A A52C,< 1e-05 s⁻¹,< 1e-05 s⁻¹,< 1e-05 s⁻¹,< 1e-05 s⁻¹,,128 ± 28 µM,
C10A G59A C68G U69C,3.77e-05 ± 1.1e-05 s⁻¹,,,,,,
G44U U54A,0.000233 ± 6.1e-05 s⁻¹,,0.000111 ± 3.6e-05 s⁻¹,0.000252 ± 6.1e-05 s⁻¹,0.000132 ± 4.1e-05 s⁻¹,,
G59A C67A,1.53e-05 ± 3.7e-06 s⁻¹,,,,,,
U65C C70U,0.000844 ± 0.0001 s⁻¹,,0.000169 ± 2.7e-05 s⁻¹,0.000647 ± 0.0001 s⁻¹,0.000379 ± 7.6e-05 s⁻¹,2930 ± 550 µM,3.71e-05 ± 1e-05 s⁻¹
C11U G66U,4.89e-05 ± 2.1e-05 s⁻¹,< 1e-05 s⁻¹,,2.69e-05 ± 1.2e-05 s⁻¹,6.45e-05 ± 1e-05 s⁻¹,,
G13A C70U,0.000795 ± 0.00019 s⁻¹,,0.000154 ± 1.7e-05 s⁻¹,0.000676 ± 9.5e-05 s⁻¹,0.000388 ± 6.1e-05 s⁻¹,2410 ± 870 µM,7.83e-05 ± 1.4e-05 s⁻¹
A12G C16U C34G C67G,1.6e-05 ± 3.8e-06 s⁻¹,,,,,,
U49G U55A,0.00113 ± 0.0001 s⁻¹,,0.000213 ± 2.8e-05 s⁻¹,0.000891 ± 0.00013 s⁻¹,0.000539 ± 5.5e-05 s⁻¹,2740 ± 370 µM,6.19e-05 ± 9.7e-06 s⁻¹
A14U C50U C67G,3.51e-05 ± 1.5e-05 s⁻¹,,,,,,
C11U A15C G51U C70A,6.95e-05 ± 2.4e-05 s⁻¹,6.91e-05 ± 1.9e-05 s⁻¹,,5.08e-05 ± 2e-05 s⁻¹,0.000111 ± 3.3e-05 s⁻¹,,
A6C U45G,< 1e-05 s⁻¹,,,,,,
G40A U56G,0.0035 ± 0.00093 s⁻¹,6e-05 ± 1.3e-05 s⁻¹,0.000577 ± 7.7e-05 s⁻¹,0.00256 ± 0.00054 s⁻¹,0.00224 ± 0.00044 s⁻¹,2840 ± 950 µM,0.000189 ± 3e-05 s⁻¹
C16U U69A,0.000112 ± 2.4e-05 s⁻¹,7.08e-05 ± 2e-05 s⁻¹,9.39e-05 ± 3.7e-05 s⁻¹,0.000115 ± 2e-05 s⁻¹,0.00022 ± 6.1e-05 s⁻¹,,6.03e-05 ± 2e-05 s⁻¹
G38U C67G,1.53e-05 ± 7.3e-06 s⁻¹,,,,,,
G32C U55C,0.000106 ± 1.3e-05 s⁻¹,,,6.12e-05 ± 1.1e-05 s⁻¹,2.78e-05 ± 1.4e-05 s⁻¹,7360 ± 1900 µM,< 1e-05 s⁻¹
G38C C70A,1.54e-05 ± 2.7e-06 s⁻¹,,,,,,
